From patent publication US20050215509

T1: recombinant SCCA-1 with a polyhistidine tag (6x His), P29508
T1 chain: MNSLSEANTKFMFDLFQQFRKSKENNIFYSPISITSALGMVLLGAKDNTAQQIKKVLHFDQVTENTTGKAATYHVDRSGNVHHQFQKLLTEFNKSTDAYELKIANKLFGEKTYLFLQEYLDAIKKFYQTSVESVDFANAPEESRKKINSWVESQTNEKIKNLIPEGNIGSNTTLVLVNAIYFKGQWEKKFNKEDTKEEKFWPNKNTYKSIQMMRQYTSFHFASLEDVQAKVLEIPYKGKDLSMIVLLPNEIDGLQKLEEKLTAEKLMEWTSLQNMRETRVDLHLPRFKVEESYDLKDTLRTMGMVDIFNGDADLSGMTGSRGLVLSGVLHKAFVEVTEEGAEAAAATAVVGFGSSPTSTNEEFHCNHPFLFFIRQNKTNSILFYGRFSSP

B1: active recombinant phosphorylated JNK-1 (Cell Signaling) (protein)
chain: MSRSKRDNNFYSVEIGDSTFTVLKRYQNLKPIGSGAQGIVCAAYDAILERNVAIKKLSRPFQNQTHAKRAYRELVLMKCVNHKNIIGLLNVFTPQKSLEEFQDVYIVMELMDANLCQVIQMELDHERMSYLLYQMLCGIKHLHSAGIIHRDLKPSNIVVKSDCTLKILDFGLARTAGTSFMMTPYVVTRYYRAPEVILGMGYKENVDLWSVGCIMGEMVCHKILFPGRDYIDQWNKVIEQLGTPCPEFMKKLQPTVRTYVENRPKYAGYSFEKLFPDVLFPADSEHNKLKASQARDLLSKMLVIDASKRISVDEALQHPYINVWYDPSEAEAPPPKIPDKQLDEREHTIEEWKELIYKEVMDLEERTKNGVIRGQPSPLAQVQQ
B2: active recombinant phosphorylated JNK-2 (Cell Signaling) (protein)
chain: MSDSKCDSQFYSVQVADSTFTVLKRYQQLKPIGSGAQGIVCAAFDTVLGINVAVKKLSRPFQNQTHAKRAYRELVLLKCVNHKNIISLLNVFTPQKTLEEFQDVYLVMELMDANLCQVIHMELDHERMSYLLYQMLCGIKHLHSAGIIHRDLKPSNIVVKSDCTLKILDFGLARTACTNFMMTPYVVTRYYRAPEVILGMGYKENVDIWSVGCIMGELVKGCVIFQGTDHIDQWNKVIEQLGTPSAEFMKKLQPTVRNYVENRPKYPGIKFEELFPDWIFPSESERDKIKTSQARDLLSKMLVIDPDKRISVDEALRHPYITVWYDPAEAEAPPPQIYDAQLEEREHAIEEWKELIYKEVMDWEERSKNGVVKDQPSDAAVSSNATPSQSSSINDISSMSTEQTLASDTDSSLDASTGPLEGCR

Target: T1, recombinant SCCA-1 with a polyhistidine …

| Protein | amount of phosphorylated c-Jun (in vitro pull-down JNK kinase assay on c-Jun fused protein beads, western blot with anti-phosphorylated c-Jun antibody) |
| --- | --- |
| B1 | in the case of incubating SCCA-1 with active JNK-1, the amount of phosphorylated c-Jun decreased remarkably as compared with the control not containing SCCA-1 |
| B2 | in the case of incubating SCCA-1 with active JNK-2, there was no significant decrease in the amount of phosphorylated c-Jun observed as compared with the control |
